Δ^6 monounsaturated product, specific activity (pmol/min/mg protein) data for one substance are collected here from patent US5614400.

The target in assay [1] is [1-^14 C]16:0-ACP (palmitoyl-acyl carrier protein made with Escherichia coli ACP) (Escherichia coli) (UniProt P0A6A8).
For assay [2], the target named is [1-^14 C]14:0-ACP (myristoyl-acyl carrier protein made with Escherichia coli ACP) (Escherichia coli) (UniProt P0A6A8).

As for “100,000×g supernatant of a T. alata endosperm homogenate (soluble Δ^6 16:0-ACP desaturase activity) (pool or library)”, the Δ^6 monounsaturated product, specific activity (pmol/min/mg protein) in assay [1] is 99; in assay [2] it was 13.
